Assay [1] concerns the target activated factor X (FXa) (UniProt P00742). As to the kind of experiment: enzyme inhibition kinetics (chromogenic substrate); as a1, with 30 nM recombinant FV, no protein S.
For assay [2] the target is unchanged. As to the kind of experiment: enzyme inhibition kinetics (chromogenic substrate); as a1, with 30 nM recombinant FV and 100 nM protein S.
Assay [3] shares this target. As to the kind of experiment: enzyme inhibition kinetics (chromogenic substrate); FXa 0.3 nM, TFPI 0–16 nM, S-2765 200 uM, 25 uM phospholipids (DOPC/DOPS/DOPE 60:20:20), 5 mM CaCl2, 25 °C, 60 min; no protein S, no FV; Ki = encounter complex, Ki* = overall dissociation constant.
For assay [4] the target is unchanged. As to the kind of experiment: enzyme inhibition kinetics (chromogenic substrate); as a1, with 100 nM protein S, no FV.

UniProt P00742, sequence (P00742 41-179, chain 1 of 2): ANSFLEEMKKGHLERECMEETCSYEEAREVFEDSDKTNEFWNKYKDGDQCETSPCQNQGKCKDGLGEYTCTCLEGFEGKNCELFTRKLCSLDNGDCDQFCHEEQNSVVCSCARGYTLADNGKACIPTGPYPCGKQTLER
UniProt P00742, sequence (P00742 235-488, chain 2 of 2): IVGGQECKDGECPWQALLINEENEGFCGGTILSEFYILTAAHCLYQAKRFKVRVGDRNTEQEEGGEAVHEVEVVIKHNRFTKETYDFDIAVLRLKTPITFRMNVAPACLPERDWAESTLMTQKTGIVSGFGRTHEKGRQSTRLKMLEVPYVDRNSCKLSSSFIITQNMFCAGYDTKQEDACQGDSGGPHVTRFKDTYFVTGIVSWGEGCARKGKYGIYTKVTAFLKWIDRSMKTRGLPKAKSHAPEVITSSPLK

As to “TFPI ΔCT (aa 1–249) (domain or fragment)”, the Ki in the assay with activated factor X (FXa) [1] came to 0.31 nM; with activated factor X (FXa) [2], 0.028 nM; with activated factor X (FXa) [3] it was 0.05 nM; with activated factor X (FXa) [4] it was 0.047 nM. Also, the Ki of the encounter complex (first step) in the assay with activated factor X (FXa) [1] was determined as 7.41 nM; in the assay with activated factor X (FXa) [2], 1.61 nM; with activated factor X (FXa) [3] it was 5.69 nM; in the assay with activated factor X (FXa) [4], 4.57 nM.

One may read the Ki as a dissociation constant, usually derived from enzyme kinetics or from competition with a known ligand.

The record behind these values is publication PMC5454113.
